Test results reported in article PMC4769027.

Assays:
[1] = molecular target: GASDALIE Fc (G236A/S239D/A330L/I332E IgG1 Fc), expressed as an Fc fragment (human); assay: SPR
[2] = molecular target: FcγRIIIa F158 variant ectodomain (as used in SPR) (human) (UniProt P08637); assay: SPR
[3] = molecular target: SDALIE Fc (S239D/A330L/I332E IgG1 Fc) (human); assay: SPR
[4] = molecular target: FcγRIIIa F158 (Homo sapiens) (UniProt P08637); assay: SPR; conditions: cited from earlier work
[5] = molecular target: FcγRIIa H131 (Homo sapiens) (UniProt P12318); assay: SPR; conditions: cited from earlier work
[6] = molecular target: FcγRIIIa V158 (Homo sapiens) (UniProt P08637); assay: SPR; conditions: cited from earlier work
[7] = molecular target: FcγRIIa R131 (Homo sapiens) (UniProt P12318); assay: SPR; conditions: cited from earlier work
FcγRIIb (Homo sapiens) = FcγRIIb (Homo sapiens) (UniProt P31994); assay: SPR; conditions: cited from earlier work
[8] = molecular target: FcγRIIb ectodomain (human) (UniProt P31994); assay: SPR
[9] = molecular target: FcγRIIa H131 variant ectodomain (human) (UniProt P12318); assay: SPR
[10] = molecular target: FcγRIIa H131 ECD (Homo sapiens) (UniProt P12318); assay: SPR; conditions: cited from earlier work
[11] = molecular target: FcγRIIIa F158 ECD (Homo sapiens) (UniProt P08637); assay: SPR; conditions: cited from earlier work
[12] = molecular target: FcγRIIIa V158 ECD (Homo sapiens) (UniProt P08637); assay: SPR; conditions: cited from earlier work
[13] = molecular target: FcγRIIa R131 ECD (Homo sapiens) (UniProt P12318); assay: SPR; conditions: cited from earlier work
[14] = molecular target: FcγRIIb ECD (Homo sapiens) (UniProt P31994); assay: SPR; conditions: cited from earlier work
[15] = molecular target: FcγRIIIa V158 ECD (Homo sapiens) (UniProt P08637); assay: Competition; conditions: cited from earlier work

Substance: FcγRIIb ectodomain (from UniProt P31994 43-217) (receptor)
- fold improved affinity compared with wtFc [1]: 6 fold

Substance: wild-type IgG1 Fc (from UniProt P01857 108-328) (domain or fragment)
- Kd [2]: 4450 nM

Substance: FcγRIIa H131 variant ectodomain (from UniProt P12318 34-211) (receptor)
- fold improved affinity compared with wtFc [1]: 17 fold
- fold tighter binding than SDALIE Fc [1]: 7 fold
- fold improved affinity compared with wtFc [3]: 2 fold

Substance: IgG1 Fc Fc (from UniProt P01857)
- Kd [4]: 2950 nM
- Kd [5]: 1380 nM
- Kd [6]: 432 nM
- Kd [7]: 1550 nM
- Kd (FcγRIIb (Homo sapiens)): 2520 nM

Substance: FcγRIIIa F158 variant ectodomain (as used in SPR) (from UniProt P08637 17-218) (receptor)
- fold improved affinity compared with wtFc [1]: 431 fold
- fold improved affinity compared with wtFc [3]: 318 fold

Substance: GASDALIE Fc (G236A/S239D/A330L/I332E IgG1 Fc), expressed as an Fc fragment (domain or fragment)
- Kd [8]: 3880 nM
- Kd [9]: 1580 nM
- Kd [2]: 213 nM

Substance: SDALIE Fc (S239D/A330L/I332E IgG1 Fc) (domain or fragment)
- Kd [8]: 2190 nM
- Kd [9]: 1490 nM
- Kd [2]: 201 nM

Substance: wtFc (IgG1) Fc (from UniProt P01857)
- Kd [10]: 1380 nM
- Kd [11]: 2950 nM
- Kd [12]: 432 nM
- Kd [13]: 1550 nM
- Kd [14]: 2520 nM
- Kd [15]: 252 nM
